Laboratory results taken from patent publication US20180072804A1 (Hoffmann-La Roche, published 2018).
“And” between values parts separate entries of the source, which are not always exact repeats. Equal entries are not always repeated. Where two headings read alike, the source gives them in different places.

Experiments:
[1] = biological target: T1, human TIM3, full length, on cells (human, UniProt Q8TDQ0 22-301); experiment: FACS, human CD14+ monocytes, donor3, 10 µg/ml
[2] = biological target: T2, Tim3-ECD-His-Biotin (human, UniProt Q8TDQ0 22-202, biotinylated with BirA Ligase); experiment: ELISA on human Tim3
T2 construct: Coated on streptavidin plates; also called human Tim3 (ELISA); Biochem Human

[3] = biological target: monomeric cyno Tim3-ECD (cynomolgus); experiment: SPR, Ab captured on anti-mouse IgG, 25 C
[4] = biological target: T1, human TIM3, full length, on cells; experiment: FACS competition, RPMI-8226 cells; competitor Tim3_0028
[5] = biological target: monomeric cyno Tim3-ECD (cynomolgus); experiment: ELISA on cynomolgus Tim3
[6] = biological target: T1, human TIM3, full length, on cells; experiment: cell-based or functional assay
[7] = biological target: T3, monomeric human Tim3-ECD (human, UniProt Q8TDQ0 22-202); experiment: SPR, Ab captured on anti-mouse IgG, 25 C
T3 construct: also called huTim3; hu Tim3-ECD

[8] = biological target: T4, Fc-tagged human Tim3-ECD dimer (human, UniProt Q8TDQ0 22-202); experiment: SPR, Ab captured on anti-mouse IgG, 25 C
T4 construct: also called huTim3Fc; huFc fused dimeric human Tim3-ECD

[9] = biological target: cynomolgus TIM-3 on isolated cyno CD14+ monocytes (cynomolgus monkey); experiment: FACS, cyno CD14+ monocytes, cyno3 (30085F)
[10] = biological target: T1, human TIM3, full length, on cells; experiment: FACS competition, RPMI-8226 cells; competitor Tim3_0018
[11] = biological target: cynomolgus TIM-3 on isolated cyno CD14+ monocytes (cynomolgus monkey); experiment: FACS, cyno CD14+ monocytes, cyno1 (16719M)
[12] = biological target: T1, human TIM3, full length, on cells; experiment: FACS competition, RPMI-8226 cells; competitor Tim3_0016
[13] = biological target: T1, human TIM3, full length, on cells; experiment: FACS competition, RPMI-8226 cells; competitor Tim3_0038
[14] = biological target: T1, human TIM3, full length, on cells; experiment: FACS competition, RPMI-8226 cells; competitor Tim3_0026
[15] = biological target: T1, human TIM3, full length, on cells; experiment: FACS competition, RPMI-8226 cells; competitor Tim3_0022
[16] = biological target: cynomolgus TIM-3 on isolated cyno CD14+ monocytes (cynomolgus monkey); experiment: FACS, cyno CD14+ monocytes, cyno2 (17435M)
[17] = biological target: T1, human TIM3, full length, on cells; experiment: FACS, human CD14+ monocytes, donor1, 10 µg/ml
[18] = biological target: T1, human TIM3, full length, on cells; experiment: cell ELISA, CHO-K1 with full-length human Tim3
[19] = biological target: T1, human TIM3, full length, on cells; experiment: FACS, human CD14+ monocytes, donor2, 10 µg/ml
[20] = biological target: T1, human TIM3, full length, on cells; experiment: FACS, human CD14+ monocytes, donor1, isotype control
[21] = biological target: cynomolgus TIM-3 on isolated cyno CD14+ monocytes (cynomolgus monkey); experiment: FACS, cyno CD14+ monocytes, cyno2 (17435M), isotype control
[22] = biological target: cynomolgus TIM-3 on isolated cyno CD14+ monocytes (cynomolgus monkey); experiment: FACS, cyno CD14+ monocytes, cyno1 (16719M), isotype control
[23] = biological target: T1, human TIM3, full length, on cells; experiment: FACS, human CD14+ monocytes, donor3, isotype control
[24] = biological target: T1, human TIM3, full length, on cells; experiment: FACS, human CD14+ monocytes, donor2, isotype control
[25] = biological target: cynomolgus TIM-3 on isolated cyno CD14+ monocytes (cynomolgus monkey); experiment: FACS, cyno CD14+ monocytes, cyno3 (30085F), isotype control
[26] = biological target: T1, human TIM3, full length, on cells; experiment: cell-based or functional assay; remark: listed apart in the source
[27] = biological target: T1, human TIM3, full length, on cells; experiment: cell-based or functional assay; remark: listed apart in the source
[28] = biological target: T1, human TIM3, full length, on cells; experiment: cell-based or functional assay; remark: listed apart in the source
[29] = biological target: T1, human TIM3, full length, on cells; experiment: cell ELISA, CHO-K1 with full-length human Tim3
[30] = biological target: T1, human TIM3, full length, on cells; experiment: cell ELISA, CHO-K1 with full-length human Tim3; remark: listed apart in the source
Description: Then the reaction was stopped by addition of 25 μl/well 1N HCL-solution.

[31] = biological target: T5, cynomolgus TIM-3 on isolated cyno CD14+ monocytes (cynomolgus monkey, UniProt A0A2K5U3G7 22-294); experiment: FACS, cyno CD14+ monocytes, cyno1 (16719M)
T5 construct: whole, on cells; also called cyno monocytes expressing TIM-3
T5 sequence: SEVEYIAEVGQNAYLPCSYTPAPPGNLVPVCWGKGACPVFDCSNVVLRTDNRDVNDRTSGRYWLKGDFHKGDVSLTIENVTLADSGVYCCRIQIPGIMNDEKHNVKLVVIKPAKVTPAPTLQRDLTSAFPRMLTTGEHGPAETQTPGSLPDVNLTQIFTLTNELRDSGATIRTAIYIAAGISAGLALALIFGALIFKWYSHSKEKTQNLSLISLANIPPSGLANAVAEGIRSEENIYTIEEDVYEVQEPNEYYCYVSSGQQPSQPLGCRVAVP
Excerpt: (§1) CD14+ Monocytes were isolated from cynomolgus monkey anticoagulated peripheral blood (Covance) by density gradient centrifugation using Ficoll-Paque (GE Healthcare) (see General Protocols in the User Manuals or visit www.miltenyibiotec.com/protocols) and subsequent positive selection via NHP CD14 MicroBeads. First the CD14+ cells are magnetically labeled with CD14 MicroBeads. Then the cell suspension is loaded onto a MACS® Column which is placed in the magnetic field of a MACS Separator. The magnetically labeled CD14+ cells are retained in the column. The unlabeled cells run through, this cell fraction is depleted of CD14+ cells. After removal of the column from the magnetic field, the magnetically retained CD14+ cells can be eluted as the positively selected cell fraction. After centrifugation at 200×g for 10 min at room temperature the monocytes were harvested and used directly in binding assay or resuspended in freezing medium (10% DMSO, 90% FCS) at 1.0E+07 cells/ml and stored in liquid nitrogen.
(§2) After washing and centrifugation MFI signals of stained cells were analyzed by BD Biosciences FACSCanto flow cytometer.

[32] = biological target: T2, Tim3-ECD-His-Biotin; experiment: ELISA on Tim3-ECD-His-Biotin
Description: After washing (3×90 μl/well with PBST-buffer) 25 μl/well sheep-anti-mouse-POD (GE NA9310V) was added in 1:9000 dilution and incubated at RT for 1 h while shaking at 400 rpm rotation. After washing (4×90 μl/well with PBST-buffer) 25 TMB substrate (Calbiochem, #CL07) was added and incubated until OD 1.5-2.5. Then the reaction was stopped by addition of 25 μl/well 1N HCL-solution.

[33] = biological target: T5, cynomolgus TIM-3 on isolated cyno CD14+ …; experiment: FACS, cyno CD14+ monocytes, cyno3 (30085F)
Excerpt: as §1, §2

[34] = biological target: T3, monomeric human Tim3-ECD; experiment: SPR, Ab captured on anti-mouse IgG, monomeric Tim3-ECD; monomer Tim3, not the Fc-tagged dimer
[35] = biological target: T4, Fc-tagged human Tim3-ECD dimer; experiment: SPR, Ab captured on anti-mouse IgG, dimeric Tim3-ECD-Fc
Description: Therefore, an anti-mouse IgG was immobilized by amine coupling to the surface of a (BIAcore) CMS sensor chip. […] The sensor chip surface was regenerated after each analysis cycle. The equilibrium constant KD was finally gained by fitting the data to a 1:1 Langmuir interaction model.
The samples were injected for 30 seconds with a concentration of 200 μg/ml and bound to the spots 1 and 5 of each flow cell, allowing the measurement of eight samples in parallel. […] The flow rate was set to 30 μl/min for the whole run.
Finally the double referenced data was fitted to a 1:1 Langmuir interaction model with the BIAcore B4000 Evaluation Software.

[36] = biological target: T5, cynomolgus TIM-3 on isolated cyno CD14+ …; experiment: FACS, cyno CD14+ monocytes, cyno2 (17435M)
Excerpt: as §1, §2

anti-human TIM-3 mouse monoclonal antibody clone F38-2E2
Specific Binding [MFI] [1]: 460 MFI | EC50 [2]: 0.0732 µg/mL | Inflexion point [2]: 88.3 ng/mL | Kd [3]: 168 nM | Max % Inhibition of Binding [4]: 75% | EC50 [5]: 0.423 µg/mL | Inflexion point [5]: 210000 ng/mL | IFNgamma release in MLR, % of rec hu IL-2 control, 1 µg/ml [6]: 7% | IFNgamma release in MLR, % of rec hu IL-2 control, 10 µg/ml [6]: 26% | IFNgamma release in MLR, % of rec hu IL-2 control, 40 µg/ml [6]: 36% | Kd [7]: 13.6 nM | Kd [8]: 7.5 nM | Specific Binding [MFI] [9]: 124 MFI | Max % Inhibition of Binding [10]: 6% | Specific Binding [MFI] [11]: 135 MFI | Max % Inhibition of Binding [12]: -7% | Max % Inhibition of Binding [13]: 94% | Max % Inhibition of Binding [14]: 2% | Max % Inhibition of Binding [15]: 77% | Specific Binding [MFI] [16]: 136 MFI | Specific Binding [MFI] [17]: 516 MFI | EC50 [18]: 0.15 µg/mL | Inflexion point [18]: 224 ng/mL | Specific Binding [MFI] [19]: 493 MFI

anti-human TIM-3 rat monoclonal antibody clone 344823 (R&D Systems)
Specific Binding [MFI] [1]: 814 MFI | Max % Inhibition of Binding [4]: 107% | Specific Binding [MFI] [9]: 143 MFI | Max % Inhibition of Binding [10]: 0% | Specific Binding [MFI] [11]: 158 MFI | Max % Inhibition of Binding [12]: 0% | Max % Inhibition of Binding [13]: 99% | Max % Inhibition of Binding [14]: 3% | Max % Inhibition of Binding [15]: 102% | Specific Binding [MFI] [16]: 121 MFI | Specific Binding [MFI] [17]: 1010 MFI | Specific Binding [MFI] [19]: 917 MFI

M-IgG1 isotype control (antibody)
Specific Binding [MFI] [20]: 144 MFI | Specific Binding [MFI] [21]: 82 MFI | Specific Binding [MFI] [22]: 72 MFI | Specific Binding [MFI] [23]: 213 MFI | Specific Binding [MFI] [24]: 55 MFI | Specific Binding [MFI] [25]: 83 MFI

Rat-IgG2A isotype control (antibody)
Specific Binding [MFI] [20]: 71 MFI | Specific Binding [MFI] [21]: 86 MFI | Specific Binding [MFI] [22]: 84 MFI | Specific Binding [MFI] [23]: 70 MFI | Specific Binding [MFI] [24]: 68 MFI | Specific Binding [MFI] [25]: 91 MFI

B1: Fab-PE24 construct of anti-TIM3 antibody Tim3_0033 (Fab, V domains shown)
VH: QGQMHQSGAELVKPGSSVKLSCKTSGFTFSSSFISWLKQKPGQSLEWIAWIYAATGSTSYNQKFTNKAQLTVDTSSSAAYMQFSSLTTEDSAIYYCARHAGYPHYYAMDYWGQGTSVTVSS
VL: DIQMTQSPASLSASVGETVTITCRASENIFSNLAWYQQKQGKSPQLLVYSATNLGDGVPSRFSGSGSGTQFSLKINSLQPEDFGNYYCQHFYKIPFTFGTGTKLEIK
Max. killing, Pfeiffer cells [26]: 99.8% | Max. killing, RPMI-8226 cells [26]: 99.7%

B2: Tim3_0026, full length human IgG1 format (antibody, V domains shown)
VH: QIQLVQSGPELKKPGETVKISCKASGYTFTDYSMHWVKQAPGRGLKWMGYINTETYEPTFGADFKGRFAFSLDTSATTAYLQINSLKTEDTATFFCGGGGYPAYWGQGTVVIVSA
VL: DVLMTQTPLSLPVSLGDQASISCRSSRTILHSSGNTYLEWYLQKPGQSPKLLIYKVSNRFSGVPDRFSGSGSGTDFTLNISRVEAEDLGVYYCFQDSHVPFTFGTGTKLEIK
Max. killing, Pfeiffer cells, with anti-human Fc Fab PE24 [27]: 78.3% | Max. killing, RPMI-8226 cells, with anti-human Fc Fab PE24 [27]: 83.1% | Rel. IC50, Pfeiffer cells, with anti-human Fc Fab PE24 [27]: < 0.02 nM

B3: Fab-PE24 construct of anti-TIM3 antibody Tim3_0021 (Fab, V domains shown)
VH: QVQLQQSGPQLVRPGASVQISCKASGYSFTSYLLHWLKQRPGQGLEWIGMIDPSDSETRLNQKFKDKATLTVDKSSSTAYMQLSSPTSEDSAVYYCARDGYYAWYYFDCWGQGTTLTVSS
VL: DIVLTQSPATLSVTPGDRVSLSCRASQSIGNNLHWYQQKSHESPRLLIKYASHSISGIPSKFSGTGSGTDFTLSFNSVETEDFGMYFCQQSNSWPLTFGAGTKLELK
Max. killing, Pfeiffer cells [26]: 98.4%

B4: anti-TIM3 antibody Tim3_0016 variant (Tim3_0018) (antibody, V domains shown)
VH: QVTLKESGPGILQPSQTLSLTCSFSGFSLSTSGMSVGWIRQPSGKGLEWLAHIWLNDDVFFNPALKRRLTISKDTSNNQVFLQIASVVTADTATYYCVRANGYLYALDYWGQGISVTVSS
VL: QIVLTQSPAIMSASPGQKVTITCSASSSVNYTQWYQQKLGSSPKLWIYDAFKLAPGVPARFSGSGTGTSYSLTISSMEAEDAASYFCHQWSSYPWTFGGGTKLEIK
notes: Mouse monoclonal from hybridoma; also called TIM3-0016 variant (0018); Tim3_0016 variant 0018-A488
Specific Binding [MFI] [1]: 1940 MFI | IFNgamma release in MLR, % of rec hu IL-2 control, 1 µg/ml [28]: 12% | IFNgamma release in MLR, % of rec hu IL-2 control, 10 µg/ml [28]: 30% | IFNgamma release in MLR, % of rec hu IL-2 control, 40 µg/ml [28]: 36% | EC50 [2]: 0.0151 µg/mL | Inflexion point [2]: 15.3 ng/mL | EC50 [29]: 0.0264 µg/mL | Inflexion point [29]: 29.4 ng/mL | Kd [3]: 41.9 nM | EC50 [30]: 0.52 nM and 0.087 µg/mL | Specific Binding [MFI] [31]: 301 MFI | EC50 [32]: 0.56 nM and 0.094 µg/mL | EC50 [5]: 0.0146 µg/mL | Inflexion point [5]: 14.6 ng/mL | Kd [7]: 3.4 nM | Kd [8]: 1.11 nM | Specific Binding [MFI] [33]: 417 MFI | Kd [34]: 3.4 nM | Kd [35]: 1.1 nM | Specific Binding [MFI] [36]: 480 MFI | Specific Binding [MFI] [17]: 2330 MFI | Specific Binding [MFI] [19]: 1820 MFI
